Data on 26 molecules can be found in patent publication US9266964.

Where a chain is given by its changes, count along the chain named.

First the molecules themselves.
B1: M200-A10 (Fab, V domains shown)
VH: EVQLLESGGGLVQPGGSLRLSCAASGFTFSHYIMMWVRQAPGKGLEWVSGIYSSGGITVYADSVKGRFTISRDNSKNTLYLQMNSLRAEDTAVYYCAYRRTGVPRRDSFDIWGQGTMVTVSS
VL: DIQMTQSPSTLSASVGDRVTITCRASQSISSWLAWYQQKPGKAPNLLIYKASTLESGVPSRFSGSGSGTEFTLTISSLQPDDFATYYCQQYNTYWTFGQGTKVEIK
notes: Tested as Fab; printed HC runs into CH1
B2: M200-D03 (Fab, V domains shown)
VH: B1 VH with Y98W, T101I, I111M
VL: B1 VL
notes: as for B1
B3: M197-A09 (Fab, V domains shown)
VH: B1 VH with H31V, I33N, M35H, G50S, S53P, I57M, V59T, V103I, S108A
VL: B1 VL
notes: as for B1
B4: M201-A07 (Fab, V domains shown)
VH: B1 VH with S108E
VL: B1 VL
notes: as for B1
B5: M202-B03 (Fab, V domains shown)
VH: B1 VH with S108D
VL: B1 VL
notes: as for B1
B6: M198-D12 (Fab, V domains shown)
VH: B1 VH with H31L, I33V, M35Y, G50Y, Y52V, S53P, I57P, V59A, V103I, S108A
VL: B1 VL
notes: as for B1
B7: M196-D12 (Fab, V domains shown)
VH: B1 VH with H31R, I33S, M35R, G50V, S53P, I57Q, V59Y, V103I, S108A
VL: B1 VL
notes: as for B1
B8: M202-C09 (Fab, V domains shown)
VH: B1 VH with T101I, S108D
VL: B1 VL
notes: as for B1
B9: M202-A12 (Fab, V domains shown)
VH: B1 VH with R99Q, D110N
VL: B1 VL
notes: as for B1
B10: M202-D09 (Fab, V domains shown)
VH: B1 VH with T101I
VL: B1 VL
notes: as for B1
B11: M196-C06 (Fab, V domains shown)
VH: B1 VH with H31I, I33S, M35H, G50S, S53P, G55R, I57M, V59W, V103I, S108A
VL: B1 VL
notes: as for B1
B12: M198-A06 (Fab, V domains shown)
VH: B1 VH with H31I, I33S, M35H, G50S, I57P, V59K, V103I, S108A
VL: B1 VL
notes: as for B1
B13: M199-A08 (Fab, V domains shown)
VH: B1 VH with T101I, S108E
VL: B1 VL
B14: M198-F09 (Fab, V domains shown)
VH: B1 VH with H31V, I33N, M35H, G50S, S53P, I57M, V59Y, V103I, S108A
VL: B1 VL
notes: as for B1
B15: M202-C01 (Fab, V domains shown)
VH: B1 VH with R106W, S108D
VL: B1 VL
notes: as for B1
B16: M208-H02 (Fab, V domains shown)
VH: EVQLLESGGGLVQPGGSLRLSCAASGFTFSHYLMTWVRQAPGKGLEWVSYISPSGGHTIYADSVKGRFTISRDNSKNTLYLQMNSLRAEDTAVYYCARVARGIASRSRTRYCDYWGQGTLVTVSS
VL: DIQMTQSPGTLSLSPGERATLSCRTSQFVNSNYLAWYQQTPGQAPRLLIYGASSRATGIPDRFSGTGYGTDFTLTISRLEPEDYGTYYCQQSSRTPWTFGQGTRVEIK
notes: as for B1
B17: M209-B09 (Fab, V domains shown)
VH: B16 VH with R101Q, A104V, S105A, R110S, C112L, D113H, Y114Q
VL: B16 VL
notes: Tested as Fab; printed HC runs into CH1; amber q written Q
B18: M209-C11 (Fab, V domains shown)
VH: B16 VH with R98M, A100G, R101Q, A104R, S105G, R110S, C112F, D113A, Y114Q
VL: B16 VL
notes: as for B17
B19: M210-G10 (Fab, V domains shown)
VH: B16 VH with S105A, R110S, C112L, Y114F
VL: B16 VL
notes: as for B1
B20: M210-H07 (Fab, V domains shown)
VH: B16 VH with S105A, C112F, Y114Q
VL: B16 VL
notes: as for B17
B21: M210-G04 (Fab, V domains shown)
VH: B16 VH with R101T, A104V, S105A, C112F, Y114Q
VL: B16 VL
notes: as for B17
B22: M209-E02 (Fab, V domains shown)
VH: B16 VH with S105A, R110I, Y111L, C112L, Y114Q
VL: B16 VL
notes: as for B17
B23: M210-C12 (Fab, V domains shown)
VH: B16 VH with R101Q, S105A, R110S, Y111S, C112V, Y114Q
VL: B16 VL
notes: as for B17
B24: M210-B02 (Fab, V domains shown)
VH: B16 VH with R98S, S105A, R110S, C112F, D113N, Y114Q
VL: B16 VL
notes: as for B17
B25: M210-H06 (Fab, V domains shown)
VH: B16 VH with S105A, C112F
VL: B16 VL
notes: as for B1
B26: M209-F04 (Fab, V domains shown)
VH: B16 VH with S105A, R110S, C112L, Y114Q, G116S
VL: B16 VL
notes: Tested as Fab; printed HC runs into CH1; amber q written Q; WSQGTL as printed

By % inhibition is commonly meant the relative decrease from the control value, in per cent. A higher % inhibition goes with strong suppression.

The first test deals with T1, human plasma kallikrein (human, UniProt P03952 20-390; P03952 391-638). Kind of test: cell-based or functional assay.
T1 sequence (P03952 20-390, chain 1 of 2): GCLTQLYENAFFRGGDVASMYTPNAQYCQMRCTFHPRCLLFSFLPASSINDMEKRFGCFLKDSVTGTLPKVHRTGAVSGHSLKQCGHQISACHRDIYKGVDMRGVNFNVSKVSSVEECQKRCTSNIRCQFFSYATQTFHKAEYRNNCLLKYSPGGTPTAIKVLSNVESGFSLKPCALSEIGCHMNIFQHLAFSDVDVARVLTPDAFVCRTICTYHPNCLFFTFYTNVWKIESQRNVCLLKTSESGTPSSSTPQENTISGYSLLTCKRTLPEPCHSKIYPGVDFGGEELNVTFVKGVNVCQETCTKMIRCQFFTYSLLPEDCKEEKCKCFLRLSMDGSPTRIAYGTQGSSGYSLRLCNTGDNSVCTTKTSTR
T1 sequence (P03952 391-638, chain 2 of 2): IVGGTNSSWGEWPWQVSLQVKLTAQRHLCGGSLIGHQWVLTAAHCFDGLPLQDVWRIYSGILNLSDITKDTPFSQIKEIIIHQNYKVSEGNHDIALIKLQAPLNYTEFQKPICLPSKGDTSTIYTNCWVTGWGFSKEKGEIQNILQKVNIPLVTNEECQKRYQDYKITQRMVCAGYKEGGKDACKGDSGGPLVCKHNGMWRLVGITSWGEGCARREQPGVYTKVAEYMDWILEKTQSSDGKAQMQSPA
B1: the “% inhibition at 10 nM” value came out at 94.3%.
The same measure, in the same setting: the figure for B2 is 95.9%; for B3 it is 94.9%.
The same measure, in the same setting: the figure for B4 is 95.7%.
On the same count and under the same terms, then B5, with 93.1%; and B6, with 63.5%; and B7, with 94.1%.
As to B8, the “% inhibition at 10 nM” value came out at 92.3%.
Still for that read-out and setting: then B9, with 97.5%.
For the molecule B10, the “% inhibition at 10 nM” value came to 95%.
Turning to B11, the “% inhibition at 10 nM” value came out at 97.2%.
Turning to B12, the “% inhibition at 10 nM” value was determined as 96.1%.
Turning to B13, the “% inhibition at 10 nM” value stood at 96.4%.
Same read-out and setting: the figure for B14 is 96.9%; for B15 it is 96.3%.

The next test deals with T1, human plasma kallikrein. As to the kind of experiment: cell-based or functional assay. The source holds these as a separate data set.
As to B16, the “% inhibition at 10 nM” value came to 94.4%.
Still for that read-out and setting: then B17, with 93.5%; and B18, with 96.2%; and B19, with 91.2%.
Take B20: the “% inhibition at 10 nM” value stood at 92.8%.
The same measure, in the same setting: the figure for B21 is 94.2%.
On the same count and under the same terms, then B22, with 92.4%; and B23, with 95.6%; and B24, with 90.9%.
The same measure, in the same setting: the figure for B25 is 93.8%; for B26 it is 97.6%.

The next test concerns the target T1, human plasma kallikrein. As to the kind of experiment: Ki,app, inhibition of human pKal enzyme activity.
Regarding B1, the Ki came out at 0.3 nM.
Take B2: the Ki was found to be 0.1 nM.
Same read-out and setting: then B3, with 0.6 nM.
The same measure, in the same setting: the figure for B4 is 0.1 nM; for B5 it is 0.3 nM.
B6 registered a Ki of 0.7 nM.
B7 had a Ki of 0.2 nM.
Molecule B8 displayed a Ki of 0.3 nM.
Still for that read-out and setting: then B9, with 0.2 nM; and B10, with 0.4 nM.
The same measure, in the same setting: the figure for B11 is 0.1 nM; for B12 it is 0.4 nM.
Molecule B13 had a Ki of 0.06 nM.
Same read-out and setting: the figure for B14 is 0.2 nM; for B15 it is 0.1 nM.

In a further test the target is T1, human plasma kallikrein. As to the kind of experiment: Ki,app, inhibition of human pKal enzyme activity. This is another data set of the same source.
In the case of B16, the Ki was found to be 0.2 nM.
B17 had a Ki of 0.2 nM.
The same measure, in the same setting: the figure for B18 is 0.14 nM; for B19 it is 0.4 nM.
The same measure, in the same setting: then B20, with 0.4 nM.
On the same count and under the same terms, then B21, with 0.3 nM; and B22, with 0.3 nM.
With B23, the Ki amounted to 0.16 nM.
The same measure, in the same setting: then B24, with 0.2 nM; and B25, with 0.2 nM.
Still for that read-out and setting: the figure for B26 is 0.09 nM.
